Reference: PMC6890836, “Exploiting Substrate Promiscuity of Ectoine Hydroxylase for Regio- and Stereoselective Modification of Homoectoine” (Frontiers in Microbiology, 2019)

Experiments:
Assay in all cases: purified protein
purified protein [1] = substrate: CC1=NC(C(=O)O)CCCN1; assay type: biochemical, Stutzerimonas stutzeri; details: 10 mM 2-oxoglutarate, 1 mM FeSO4, 100 mM KCl, 100 mM TES pH 7.5, 35 °C, no catalase
purified protein [2] = substrate: CC1=N[C@H](C(=O)O)CCN1; assay type: biochemical, Stutzerimonas stutzeri; details: 10 mM 2-oxoglutarate, 1 mM FeSO4, 100 mM KCl, 100 mM TES pH 7.5, 35 °C, no catalase
purified protein [3] = substrate: CC1=NC(C(=O)O)CCCN1; assay type: biochemical, Sphingopyxis alaskensis; details: 10 mM 2-oxoglutarate, 1 mM FeSO4, 100 mM KCl, 100 mM TES pH 7.5, 15 °C, 1300 U bovine catalase
purified protein [4] = substrate: CC1=N[C@H](C(=O)O)CCN1; assay type: biochemical, Sphingopyxis alaskensis; details: 10 mM 2-oxoglutarate, 1 mM FeSO4, 100 mM KCl, 100 mM TES pH 7.5, 15 °C, 1300 U bovine catalase

Row | Protein | Km (purified protein [1]) [µM] | Km (purified protein [2]) [µM] | Km (purified protein [3]) [µM] | Km (purified protein [4]) [µM]
1 | (Ps)EctD, ectoine hydroxylase from P. stutzeri A1501 (Stutzerimonas stutzeri A1501) (protein, full-length, Strep-tag II fusion (tag kept), from plasmid pMP41 in E. coli BL21(DE3); EctD is a dimer in solution) MQADLYPSRQEDQPSWQERLDPVVYRSDLENAPIAAELVERFERDGYLVIPNLFSADEVALFRAELERMRQDPAVAGSGKTIKEPDSGAIRSVFAIHKDNELFARVAADERTAGIARFILGGDLYVHQSRMNFKPGFTGKEFYWHSDFETWHIEDGMPRMRCLSCSILLTDNEPHNGPLMLMPGSHKHYVRCVGATPENHYEKSLRKQEIGIPDQNSLSELASRFGIDCATGPAGSVVFFDCNTMHGSNGNITPSARSNLFYVYNHVDNAVQAPFCEQKPRPAFVAERENFKPLDIRPQQYL | 2600 ± 200 | 2300 ± 200 | – | –
2 | (Sa)EctD, ectoine hydroxylase from S. alaskensis (Sphingopyxis alaskensis RB2256) (protein, full-length, Strep-tag II fusion (tag kept), from plasmid pMP40 in E. coli BL21(DE3); dimer) MQDLYPSRQRADAEMRPRLDPVVHSEWTNDAPISARQAAAFDRDGYIVLEDIFSADEVAFLQKAAGNLLADPAALDADTIVTEPQSNEIRSIFEIHAQSPVMARLAADARLADVARFLLGDEVYIHQSRLNYKPGFKGREFYWHSDFETWHVEDGMPRMRALSMSVLLAENTPHNGPLMVIPGSHRTYLTCVGETPDDHYLSSLKKQEYGVPDEESLAELAHRHGIVAPTGKPGTVILFDCNLMHGSNGNITPFPRANAFLVYNAVSNRLEKPFGVEKPRPWFLARRGEPAALRVERGPLVETVPA | – | – | 3100 ± 300 | 800 ± 100
